Laboratory results reported in patent publication US20100104550A1 (priority 2006, published 2010).
“Also recorded” adds a separate entry of the source.

Assays:
MDA231luc cells [1] = assay type: cell-based, human
EGFR = EGFR (Homo sapiens, UniProt P00533); assay type: cell-based, rat
F98/EGFR-Dox cells = assay type: cell-based, rat
α-fodrin = assay type: cell-based, human
GRP78/BiP = GRP78/BiP (Homo sapiens, UniProt P11021); assay type: cell-based
MDA231luc cells [2] = assay type: cell-based, human; remark: listed apart in the source
caspase-3/7 = assay type: cell-based, human
MDA231luc-Dox cells = assay type: cell-based, human

Sequence of GRP78/BiP (P11021 19-654): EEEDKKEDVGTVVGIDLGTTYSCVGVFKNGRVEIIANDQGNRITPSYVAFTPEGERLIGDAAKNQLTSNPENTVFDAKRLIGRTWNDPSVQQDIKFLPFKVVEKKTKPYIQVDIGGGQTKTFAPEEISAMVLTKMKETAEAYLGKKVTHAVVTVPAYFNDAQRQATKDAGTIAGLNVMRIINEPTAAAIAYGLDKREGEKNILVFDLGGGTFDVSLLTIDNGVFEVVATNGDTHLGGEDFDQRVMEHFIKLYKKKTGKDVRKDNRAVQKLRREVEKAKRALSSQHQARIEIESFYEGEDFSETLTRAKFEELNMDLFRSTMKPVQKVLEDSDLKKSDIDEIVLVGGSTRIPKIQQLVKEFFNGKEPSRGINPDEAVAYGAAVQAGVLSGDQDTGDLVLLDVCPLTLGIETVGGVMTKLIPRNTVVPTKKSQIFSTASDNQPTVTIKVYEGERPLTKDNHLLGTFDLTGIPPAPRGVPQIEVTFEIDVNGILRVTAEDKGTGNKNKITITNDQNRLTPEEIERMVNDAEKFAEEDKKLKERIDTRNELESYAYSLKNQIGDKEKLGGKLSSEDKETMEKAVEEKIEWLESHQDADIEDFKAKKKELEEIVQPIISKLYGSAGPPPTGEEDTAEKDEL

B1: EGF-SubA: fusion protein (SEQ ID NO:13): Cys-tag, linker, human EGF, linker, 326 amino acid SubA fragment (protein)
chain: MKESCAKKFQRQHMDSGGGGSGGGGSGGGGSMGNSDSECPLSHDGYCLHDGVCMYIEALDKYACNCVVGYIGERCQYRDLKWWELRSMADIGSEKPWYFDAIGLTETTMSLTDKNTPVVVSVVDSGVAFIGGLSDSEFAKFSFTQDGSPFPVKKSEALYIHGTAMASLIASRYGIYGVYPHALISSRRVIPDGVQDSWIRAIESIMSNVFLAPGEEKIINISGGQKGVASASVWTELLSRMGRNNDRLIVAAVGNDGADIRKLSAQQRIWPAAYHPVSSVNKKQDPVIRVAALAQYRKGETPVLHGGGITGSRFGNNWVDIAAPGQNITFLRPDAKTGTGSGTSEATAIVSGVLAAMTSCNPRATATELKRTLLESADKYPSLVDKVTEGRVLNAEKAISMFCKKNYIPVRQGRMSEEL
modifications: fusion protein of subA and human EGF with cys tag consisting of SEQ ID NOS 7 to 12
effect on bortezomib-induced cell growth inhibition (MDA231luc cells [1]): enhances cell growth inhibition | effect on thapsigargin-induced cell growth inhibition (MDA231luc cells [1]): enhances cell growth inhibition | EGFR tyrosine autophosphorylation (EGFR): induced EGFR tyrosine autophosphorylation in the same concentration range | IC50 (parental F98 cells): ~2.5 nM | sensitivity of F98/EGFR-Dox cells relative to parental F98/EGFR (F98/EGFR-Dox cells): Enhanced sensitivity; also recorded: significantly more sensitive | accumulation of 150-kDa and 120-kDa fragments of α-fodrin (α-fodrin): Greater accumulation | cleavage of BiP in combination treatment (GRP78/BiP): effective cleavage of BiP | cleavage of intracellular GRP78/BiP (GRP78/BiP): appearance of a 28-kDa fragment; also recorded: selectively cleaves intracellular BiP | effect of excess EGF on EGF-SubA toxicity (MDA231luc cells [2]): inhibited by excess of EGF; also recorded: excess of free EGF rescue cells | fold lower sensitivity of MDA-231luc cells vs F98/EGFR cells (MDA231luc cells [2]): 10 fold | total DEVD- and specific caspase-3/7 activity (caspase-3/7): significant increase | sensitivity of MDA231luc-Dox cells relative to parental MDA231luc (MDA231luc-Dox cells): Enhanced sensitivity; also recorded: significantly more sensitive
